The source of these data is PMC10318464, “A CsoR family transcriptional regulator, TTHA1953, controls the sulfur oxidation pathway in Thermus thermophilus HB8” (The Journal of Biological Chemistry, 2023).

For orientation: stoichiometry N means a count of units in the complex or per binding partner.

Series [1] deals with the molecule itself. The series can be described thus: non-reducing SDS-PAGE; 2 μg recombinant TTHA1953 treated with buffer, 10 mM CuCl2 or H2O2 for 20 min; Laemmli buffer with or without 350 mM β-mercaptoethanol; Coomassie staining.
Series [2] concerns the molecule itself. Briefly: native gel or EMSA; adaptation of a Ferguson plot; apparent weight of the TTHA1953 complex bound to its consensus-sequence DNA (Fig. S3). (In general: Mobility shift assays separate free from complexed probe on a gel.)
The target in series [3] is T1, TTHA1953 (Thermus thermophilus HB8, UniProt Q5SGX7 1-93).
T1 sequence: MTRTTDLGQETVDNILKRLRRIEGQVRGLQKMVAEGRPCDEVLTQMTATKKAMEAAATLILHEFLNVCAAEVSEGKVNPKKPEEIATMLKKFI
The series can be described thus: BLI; 1 mM DTT; BLI: 20 mM Tris pH 7.5, 100 mM NaCl, 1 mM EDTA, 0.05% Tween-20, 1 mM DTT, 37 C; REPSA: 1x CutSmart, 1 mM DTT, 55 C 20 min then 37 C (REPA details not in materia). As to conditions: protein: recombinant, chain copies: 8, blunt.

In series [4] the target is T1, TTHA1953. The description is as above. As to conditions: protein: recombinant; chain copies: 8; label: 5' biotin on ST2R strand; blunt.
[5] abbreviates: label: 5' biotin on ST2R strand.

B1: TTHA1953, CsoR-like protein from Thermus thermophilus HB8 (natural protein, UniProt Q5SGX7 1-93, looked up)
chain: MTRTTDLGQETVDNILKRLRRIEGQVRGLQKMVAEGRPCDEVLTQMTATKKAMEAAATLILHEFLNVCAAEVSEGKVNPKKPEEIATMLKKFI
notes: TTHA1953, CsoR-like protein of Thermus thermophilus HB8; expression vector TEx04A02 bought from RIKEN BioResource Research Center; has two cysteines (C39, C68); No tag is mentioned; Estimated homo-octamer weight 83 kDa, so about 10 kDa a chain; also called CsoR family transcriptional regulator; source: E. coli Rosetta 2 (DE3), purified (1 M NaCl extraction of the pellet after sonication, 70 °C …)
B1: the “stoichiometry N” value in series [1] was 2; in series [2], 8.

B2: Control (dsDNA)
DNA 1: CCTCTCTATGGGCAGTCGGTGATCTAGGAATTCGTGCAGAGGTGACGTCATAGAATTCGCATCCCTCCAGAAGCTTGGAC
DNA 2: GTCCAAGCTTCTGGAGGGATGCGAATTCTATGACGTCACCTCTGCACGAATTCCTAGATCACCGACTGCCCATAGAGAGG
Take B2: the binding result in series [3] (label: 5' IRDye800 on ControlL strand (REPA)) is “no binding”.

B3: ST2_1953_mt8 (spacer -1) (dsDNA)
DNA 1: CTAGGAATTCGTGCAGAGGTGATACTATACCTGGTATGGTACATCCCTCCAGAAGCTTGGAC
DNA 2: GTCCAAGCTTCTGGAGGGATGTACCATACCAGGTATAGTATCACCTCTGCACGAATTCCTAG
For B3, in series [4], the “Kd fold-change relative to consensus” value was ~15 fold higher Kd than consensus.

B4: ST2_1953_mt7 (spacer +1) (dsDNA)
DNA 1: CTAGGAATTCGTGCAGAGGTGATACTATACCTCTGGTATGGTACATCCCTCCAGAAGCTTGGAC
DNA 2: GTCCAAGCTTCTGGAGGGATGTACCATACCAGAGGTATAGTATCACCTCTGCACGAATTCCTAG
On to B4, for which, in series [4], the “Kd fold-change relative to consensus” value is ~10 fold higher Kd than consensus.

B5: ST2_1953_mt9 (dsDNA)
DNA 1: CTAGGAATTCGTGCAGAGGTGAGCTTATACCTTGTGCTGGTACATCCCTCCAGAAGCTTGGAC
DNA 2: GTCCAAGCTTCTGGAGGGATGTACCAGCACAAGGTATAAGCTCACCTCTGCACGAATTCCTAG
Take B5: the binding result in series [3] (setting [5]) is on record as “no binding”.

B6: ST2_1953_mt10 (dsDNA)
DNA 1: CTAGGAATTCGTGCAGAGGTGAGCTTAGCTCTTGGTATGGTACATCCCTCCAGAAGCTTGGAC
DNA 2: GTCCAAGCTTCTGGAGGGATGTACCATACCAAGAGCTAAGCTCACCTCTGCACGAATTCCTAG
For B6, in series [3] (setting [5]), the binding result is listed as “no binding”.
